Test results: patent publication US7790363B2, “Diagnostic test for vitamin B12” (Abbott Laboratories Inc., priority 2005, dated 2010)

B1: recombinant porcine intrinsic factor: Recombinant porcine intrinsic factor produced in E. coli from the pMAL-IF or pET32a-IF vector, affinity purified (protein)
chain: YNLKAQKLLTYKLMATNTSDLTTGQLALTIMALTSSCRDPGNRIAILQGQMENWAPPSLDTHASTFYEPSLGILTLCQNNPEKTLPLAARFAKTLLANSSPFNMDTGAMATLALTCMYNKIPVGSEEGYRALFSQVLRNTVENISMRIQDNGIIGNIYSTGLAMQALSVTPEQPNKEWDCQKTMDTVLTEIKEGKFHNPMAIAQILPSLKGKTYLDVPHVSCSPGHEVPPTLPNHPSPVPTPAPNITVIYTINNQLRGVELLFNETISVSVKRGSVLLIVLEEAQRKNPKFKFETTMTSWGPVVSSINNIAENVNHRTYWQFLSGQTPLNEGVADYIPFNHEHITANFTQY
modifications: S. scrofa
B2: Porcine IF cDNA54-1254-Mature Peptide: Porcine intrinsic factor mature peptide, 399 amino acids, SEQ ID NO: 9, expressed from pGEMEX-1 expression vector (protein)
chain: STQTRSSCSVPSAEQPLVNGIQVLMEQSVTSSAFPNPSILIAMNLAGAYNTEAQELLTYKLMATNTSDLTTGQLALTIMALTSSCRDPGNRIAILQGQMENWAPPSLDTHASTFYEPSLGILTLCQNNPEKTLPLAARFAKTLLANSSPFNMDTGAMATLALTCMYNKIPVGSEEGYRALFSQVLRNTVENISMRIQDNGIIGNIYSTGLAMQALSVTPEQPNKEWDCQKTMDTVLTEIKEGKFHNPMAIAQILPSLKGKTYLDVPHVSCSPGHEVPPTLPNHPSPVPTPAPNITVIYTINNQLRGVELLFNETISVSVKRGSVLLIVLEEAQRKNPKFKFETTMTSWGPVVSSINNIAENVNHRTYWQFLSGQTPLNEGVADYIPFNHEHITANFTQY
modifications: S. scrofa

Key:
[1] = "ARCHITECT" Intrinsic Factor Binding Capacity Assay (one-step competitive assay); details: read from vitamin B12 calibration curve, converted to binding capacity using an equation
Description: The vitamin B12-binding capacity of the recombinant porcine Intrinsic Factor was measured using in “ARCHITECT” Intrinsic Factor Binding Capacity Assay. The assay is a one-step competitive assay where intrinsic factor from the test sample competes with intrinsic factor coated onto microparticles for the vitamin B12-acridinium tracer. Thus, signal in the assay is inversely proportional to the concentration of intrinsic factor in the test sample. The results are read from a vitamin B12 calibration curve, and the vitamin B12 concentration results are converted to binding capacity using an equation. The Binding Capacity Value for the recombinant porcine intrinsic factor was determined to be 904 ng/ml.

[2] = vitamin B12-Alkaline Phosphatase conjugate blot; format: binding; details: E. coli lysate, SDS-PAGE, blotted onto nitrocellulose, probed with vitamin B12-alkaline phosphatase conjugate
Text: FIG. 2 illustrates the binding of recombinant porcine intrinsic factor to vitamin B12. The E. coli cells were lysed and the proteins were resolved using SDS-PAGE and blotted onto a nitrocellulose membrane. The membrane was probed with vitamin B12 conjugate to alkaline phosphatase. […] Lane 1 contains molecular weight markers (marked in kilodaltons). Lanes 2, 3, 4, and 5 represent cells from various clones expressing recombinant porcine intrinsic factor. Lane 6 contains the native porcine intrinsic factor (purified from hog (Sus scrofa) gut).
(§1) The E. coli lysate containing the expressed recombinant porcine intrinsic factor was run on an SDS-PAGE (Polyacrylamide Gel Electrophoresis), and the gel was blotted onto nitrocellulose. This blot was probed with vitamin B12-alkaline phosphatase conjugate and developed using an appropriate substrate. […] Referring now to FIG. 2, Lane 1 contains molecular weight markers (marked in kilodaltons). Lanes 2, 3, 4, and 5 represent cells from various clones expressing recombinant porcine intrinsic factor. Lane 6 contains the native porcine intrinsic factor (purified from hog (Sus scrofa) gut).

[3] = tested on: anti-intrinsic factor antibody; test: Western blotting with anti-intrinsic factor antibody; format: binding; details: E. coli lysate, SDS-PAGE, blotted onto nitrocellulose, probed with anti-intrinsic factor antibody
Text: FIG. 3 illustrates the binding of recombinant porcine intrinsic factor to anti-intrinsic factor antibody by Western blotting. The E. coli cells were lysed and the proteins were resolved using SDS-PAGE and blotted onto a nitrocellulose membrane. The membrane was then probed with anti-intrinsic factor antibody. Lane 1 contains molecular weight markers (marked in kilodaltons). Lanes 2, 3, 4, and 5 represent cells from various clones expressing recombinant porcine intrinsic factor. Lane 6 contains the native porcine intrinsic factor (purified from hog (Sus scrofa) gut).
as §1, with “E. Coli” for “E. coli”, “with anti-intrinsic factor antibody” for “with vitamin B12-alkaline phosphatase conjugate”, “FIG. 3,” for “FIG. 2,”

[4] = Solubility of the protein expressed in E. coli; format: physicochemical; details: expression in E. coli from the named vector
Description: Using the Porcine IF cDNA14-1248 (SEQ ID NO: 5) as the template and the Forward Primer pIFMP-ForI (SEQ ID NO: 14) and Reverse Primer pIFMP-RevXhoI (SEQ ID NO: 15), the cDNA encoding the Porcine IF cDNA54-1254-Mature Peptide was amplified by PCR. The PCR profile was as follows: one initial denaturation step at a temperature of 95° C. for 5 minutes; then 33 cycles of the following conditions: a temperature of 95° C. for 30 seconds, then a temperature of 57° C. for 30 seconds, then a temperature of 72° C. for 1 minute; followed by a final extension at a temperature of 72° C. for 5 minutes. This PCR fragment was subcloned into pGEMEX-1 expression vector (purchased from Promega Corporation, Madison, Wis.).
To produce a soluble version of this protein, cDNA encoding the Porcine IF cDNA54-1254-Mature Peptide was amplified by PCR using IF cDNA14-1248 (SEQ ID NO: 5) as the template and the Forward primer pIF-PIC-MP-For EcoR1 (SEQ ID NO: 16) and the Reverse pIF-MP-pMAL-SaI1 Rev primer (SEQ ID NO: 17) and the following PCR conditions: one initial denaturation step at a temperature of 95° C. for 5 minutes; then 35 cycles of the following conditions: a temperature of 95° C. for 30 seconds, then a temperature of 56° C. for 30 seconds, then a temperature of 72° C. for 1 minute; followed by a final extension at a temperature of 72° C. for 5 minutes. […]

Molecule	Binding Capacity Value (vitamin B12-binding capacity) [1]	binding to vitamin B12 (band developed color) [2]	binding to anti-intrinsic factor antibody (band developed color) [3]	solubility of the expressed protein [4]
B1	904 ng/mL	bound to vitamin B12	recognized by the antibody	–
B2	–	–	–	insoluble and formed inclusion bodies
